Like-named read-outs stand apart in the source and are kept apart here.
Assays:
Test in all cases: cross-linking
cross-linking [1] = target: the molecule itself
cross-linking [2] = target: the molecule itself; remark: listed apart in the source
cross-linking [3] = target: the molecule itself; remark: listed apart in the source

B1: FLAG-tagged FlhA D170C/R185C (natural protein)
chain: MANLVAMLRLPSNLKSTQWQILAGPILILLILSMMVLPLPAFILDLLFTFNIALSIMVLLVAMFTQRTLDFAAFPTILLFTTLLRLALNVASTRIILMEGHTGAAAAGKVVEAFGHFLVGGNFAIGIVVFIILVIINFMVITKGAGRIAEVGARFVLDGMPGKQMAIDACLNAGLIGEDEAKKRCSEVTQEADFYGSMDGASKFVRGDAIAGILIMVINVVGGLLVGVLQHGMSIGSAAESYTLLTIGDGLVAQIPALVISTAAGVIVTRVSTDQDVGEQMVGQLFSNPRVMLLAAAVLGLLGMVPGMPNLVFLLFTAALLGLAWWLRGREEKAPEEPQPVKMPENNSVVEATWNDVQLEDSLGMEVGYRLIPMVDFQQDGELLGRIRSIRKKFAQDMGFLPPVVHIRDNMDLQPARYRILMKGVEIGSGDAYPGRWLAINPGTAAGTLPGEKTVDPAFGLDAIWIESALKEQAQIQGFTVVEASTVVATHLNHLIGQFSAELFGRQEAQQLLDRVSQEMPKLTEDLVPGVVTLTTLHKVLQNLLAEKVPIRDMRTILETLAEHAPLQSDPHELTAVVRVALGRAITQQWFPGNEEVQVIGLDTALERLLLQALQGGGGLEPGLADRLLAQTQEALSRQEMLGAPPVLLVNHALRPLLSRFLRRSLPQLVVLSNLELSDNRHIRMTATIGGK
stoichiometry N (cross-linking [1]): 5
stoichiometry N (cross-linking [2]): 9
stoichiometry N (cross-linking [3]): 7

Reference: publication PMC5380474 (Molecular microbiology, 2017)
